In general, stoichiometry N refers to a count of units in the complex or per binding partner.

Here are results for one substance from paper PMC7719794.

For this experiment, the target named is chicken CD8αα homodimer (chicken). Description: crystal structure; sitting-drop vapour diffusion at 291 K, 10 mg/ml; cCD8αα and pMHC-I mixed at a 2:1 molar ratio at 277 K overnight; three crystals: pBF2*1501, cCD8αα/pBF2*1501, cCD8αα/pBF2*0401; two complexes (A and B) in the asymmetric unit of each co-crystal.

For chicken CD8αα homodimer (receptor), the stoichiometry N stood at 2.
